Reference: the supplement of paper PMC10065799, “High-throughput profiling of sequence recognition by tyrosine kinases and SH2 domains using bacterial peptide display” (eLife, 2023)

What was measured:
[1] = target: Grb2 SH2 (UniProt P62993); test: SH2 binding enrichment of the phosphorylated peptide, bacterial display (enrichment ratio); higher = better substrate or ligand; peptides without Tyr show the background
[2] = target: c-Src SH2; test: as above
[3] = target: SHP2-C SH2; test: as above
[4] = target: FGFR1 (UniProt P11362); test: phosphorylation enrichment, bacterial display (enrichment ratio); higher = better substrate or ligand; peptides without Tyr show the background
[5] = target: Hck (UniProt P08631); test: as above
[6] = target: Fes (UniProt P07332); test: as above
[7] = target: Fyn (UniProt P06241); test: as above
[8] = test system: c-Abl (mouse); test: as above
[9] = target: Jak2 (UniProt O60674); test: as above
[10] = test system: c-Src; test: as above
[11] = test system: Fer (mouse); test: as above
[12] = target: EPHB1 (UniProt P54762); test: as above
[13] = target: FGFR3 (UniProt P22607); test: as above
[14] = target: EPHB2 (UniProt P29323); test: as above
[15] = target: MERTK (UniProt Q12866); test: as above
[16] = test system: AncSZ; test: as above
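Throughout, for SH2 binding enrichment of the phosphorylated peptide, bacterial display: peptide library displayed on the E. coli surface as eCPX fusions, selected cells deep-sequenced, score is each peptide's frequency after selection divided by its frequency in the input.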
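Throughout, for phosphorylation enrichment, bacterial display: 11-residue human phosphosite peptides and single-mutation variants displayed on the E. coli surface, counted by deep sequencing, each peptide's frequency after selection divided by its frequency in the unselected input library; frequency after pTyr selection over input frequency; kinase dosed for 20-30% of maximal phosphorylation in three min.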

Sequence of Jak2 (O60674 whole entry, looked up): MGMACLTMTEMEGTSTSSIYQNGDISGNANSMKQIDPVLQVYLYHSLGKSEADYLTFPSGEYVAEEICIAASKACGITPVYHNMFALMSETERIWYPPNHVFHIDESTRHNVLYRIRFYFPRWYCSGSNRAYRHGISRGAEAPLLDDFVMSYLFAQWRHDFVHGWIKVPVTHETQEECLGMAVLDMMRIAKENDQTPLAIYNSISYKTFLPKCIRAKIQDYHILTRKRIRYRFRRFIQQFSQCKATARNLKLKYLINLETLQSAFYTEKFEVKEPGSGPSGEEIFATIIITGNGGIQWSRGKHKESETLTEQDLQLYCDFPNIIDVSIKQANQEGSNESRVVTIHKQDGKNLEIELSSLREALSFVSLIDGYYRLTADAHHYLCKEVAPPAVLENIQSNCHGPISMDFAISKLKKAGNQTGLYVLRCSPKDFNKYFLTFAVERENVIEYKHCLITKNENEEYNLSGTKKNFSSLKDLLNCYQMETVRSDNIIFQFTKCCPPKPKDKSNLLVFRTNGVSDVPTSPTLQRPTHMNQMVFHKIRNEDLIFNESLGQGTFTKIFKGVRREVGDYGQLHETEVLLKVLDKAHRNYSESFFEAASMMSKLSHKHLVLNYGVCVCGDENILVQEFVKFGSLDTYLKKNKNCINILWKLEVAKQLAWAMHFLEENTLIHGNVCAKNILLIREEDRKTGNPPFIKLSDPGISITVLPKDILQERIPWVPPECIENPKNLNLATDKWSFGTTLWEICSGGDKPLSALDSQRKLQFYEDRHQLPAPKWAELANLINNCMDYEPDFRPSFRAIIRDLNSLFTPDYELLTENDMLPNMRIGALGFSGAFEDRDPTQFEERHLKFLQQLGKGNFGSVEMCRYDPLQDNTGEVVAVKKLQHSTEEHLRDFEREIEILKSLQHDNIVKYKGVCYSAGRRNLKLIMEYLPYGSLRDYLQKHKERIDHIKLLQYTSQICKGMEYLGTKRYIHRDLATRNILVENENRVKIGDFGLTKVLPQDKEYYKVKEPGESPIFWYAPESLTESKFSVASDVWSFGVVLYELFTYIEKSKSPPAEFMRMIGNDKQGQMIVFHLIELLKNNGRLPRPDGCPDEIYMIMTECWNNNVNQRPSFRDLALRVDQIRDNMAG
Sequence of EPHB1 (P54762 whole entry, looked up): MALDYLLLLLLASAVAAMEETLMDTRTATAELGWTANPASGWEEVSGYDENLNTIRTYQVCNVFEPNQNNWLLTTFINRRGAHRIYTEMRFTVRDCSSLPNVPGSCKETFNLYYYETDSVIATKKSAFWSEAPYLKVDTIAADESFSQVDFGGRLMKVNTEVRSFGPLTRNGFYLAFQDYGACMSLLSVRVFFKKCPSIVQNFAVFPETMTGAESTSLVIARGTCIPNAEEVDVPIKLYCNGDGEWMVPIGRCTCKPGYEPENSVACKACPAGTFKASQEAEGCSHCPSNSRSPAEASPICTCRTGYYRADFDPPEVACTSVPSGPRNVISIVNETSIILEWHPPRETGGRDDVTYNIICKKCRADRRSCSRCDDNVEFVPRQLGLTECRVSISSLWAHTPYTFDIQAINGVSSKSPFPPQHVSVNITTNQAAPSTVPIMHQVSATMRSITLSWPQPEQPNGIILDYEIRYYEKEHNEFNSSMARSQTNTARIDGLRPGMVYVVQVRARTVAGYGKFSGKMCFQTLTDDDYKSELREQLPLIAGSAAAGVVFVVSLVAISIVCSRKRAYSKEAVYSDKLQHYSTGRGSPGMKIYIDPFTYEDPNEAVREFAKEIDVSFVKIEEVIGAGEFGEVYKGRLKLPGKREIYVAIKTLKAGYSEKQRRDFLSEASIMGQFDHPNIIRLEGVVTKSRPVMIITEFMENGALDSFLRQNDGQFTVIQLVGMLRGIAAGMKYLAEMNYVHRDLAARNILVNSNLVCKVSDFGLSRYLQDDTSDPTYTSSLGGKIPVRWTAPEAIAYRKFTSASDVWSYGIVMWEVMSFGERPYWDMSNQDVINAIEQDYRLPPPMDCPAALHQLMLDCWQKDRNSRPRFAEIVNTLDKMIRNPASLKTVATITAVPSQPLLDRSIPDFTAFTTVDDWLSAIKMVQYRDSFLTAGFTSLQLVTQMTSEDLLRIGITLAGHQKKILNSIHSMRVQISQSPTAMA
Sequence of Fyn (P06241 whole entry, looked up): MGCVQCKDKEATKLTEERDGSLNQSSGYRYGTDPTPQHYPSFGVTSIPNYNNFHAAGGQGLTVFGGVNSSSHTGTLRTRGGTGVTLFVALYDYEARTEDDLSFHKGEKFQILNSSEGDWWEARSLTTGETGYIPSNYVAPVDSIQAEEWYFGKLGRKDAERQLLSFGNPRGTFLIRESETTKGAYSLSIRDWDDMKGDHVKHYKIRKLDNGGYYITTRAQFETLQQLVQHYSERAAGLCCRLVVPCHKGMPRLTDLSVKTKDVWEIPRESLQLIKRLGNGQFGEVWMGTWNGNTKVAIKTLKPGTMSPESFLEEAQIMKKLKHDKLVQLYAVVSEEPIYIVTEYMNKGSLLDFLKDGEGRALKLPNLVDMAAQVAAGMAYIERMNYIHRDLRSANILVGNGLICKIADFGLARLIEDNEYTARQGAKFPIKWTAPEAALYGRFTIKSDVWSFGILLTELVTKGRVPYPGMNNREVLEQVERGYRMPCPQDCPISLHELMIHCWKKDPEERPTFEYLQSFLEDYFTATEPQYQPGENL
Sequence of EPHB2 (P29323 whole entry, looked up): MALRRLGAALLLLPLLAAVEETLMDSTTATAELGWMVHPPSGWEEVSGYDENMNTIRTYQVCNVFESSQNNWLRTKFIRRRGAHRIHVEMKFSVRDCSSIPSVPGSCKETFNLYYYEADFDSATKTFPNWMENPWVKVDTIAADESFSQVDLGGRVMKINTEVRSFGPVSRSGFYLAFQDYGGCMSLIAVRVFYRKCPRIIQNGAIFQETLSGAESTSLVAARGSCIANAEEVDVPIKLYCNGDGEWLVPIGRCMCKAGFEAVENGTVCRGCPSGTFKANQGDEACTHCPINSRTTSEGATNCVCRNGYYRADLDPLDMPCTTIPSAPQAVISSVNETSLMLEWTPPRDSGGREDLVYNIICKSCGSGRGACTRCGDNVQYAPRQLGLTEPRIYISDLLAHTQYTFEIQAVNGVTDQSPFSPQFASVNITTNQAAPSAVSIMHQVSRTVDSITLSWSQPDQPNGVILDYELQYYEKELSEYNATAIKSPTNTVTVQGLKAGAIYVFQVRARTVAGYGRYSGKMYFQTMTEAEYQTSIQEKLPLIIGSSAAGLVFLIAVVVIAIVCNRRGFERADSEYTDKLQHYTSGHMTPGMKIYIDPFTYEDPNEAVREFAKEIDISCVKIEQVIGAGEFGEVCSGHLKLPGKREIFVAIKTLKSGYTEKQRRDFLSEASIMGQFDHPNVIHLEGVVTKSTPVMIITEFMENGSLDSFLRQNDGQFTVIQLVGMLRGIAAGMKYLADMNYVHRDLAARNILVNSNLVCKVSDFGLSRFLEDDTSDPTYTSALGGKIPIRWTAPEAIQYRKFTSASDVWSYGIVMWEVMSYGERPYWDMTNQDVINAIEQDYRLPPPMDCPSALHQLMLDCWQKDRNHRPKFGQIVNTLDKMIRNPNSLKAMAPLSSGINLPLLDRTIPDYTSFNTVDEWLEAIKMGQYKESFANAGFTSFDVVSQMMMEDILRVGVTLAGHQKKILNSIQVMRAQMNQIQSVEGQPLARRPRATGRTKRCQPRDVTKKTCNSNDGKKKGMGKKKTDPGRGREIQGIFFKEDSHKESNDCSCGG
Sequence of FGFR3 (P22607 whole entry, looked up): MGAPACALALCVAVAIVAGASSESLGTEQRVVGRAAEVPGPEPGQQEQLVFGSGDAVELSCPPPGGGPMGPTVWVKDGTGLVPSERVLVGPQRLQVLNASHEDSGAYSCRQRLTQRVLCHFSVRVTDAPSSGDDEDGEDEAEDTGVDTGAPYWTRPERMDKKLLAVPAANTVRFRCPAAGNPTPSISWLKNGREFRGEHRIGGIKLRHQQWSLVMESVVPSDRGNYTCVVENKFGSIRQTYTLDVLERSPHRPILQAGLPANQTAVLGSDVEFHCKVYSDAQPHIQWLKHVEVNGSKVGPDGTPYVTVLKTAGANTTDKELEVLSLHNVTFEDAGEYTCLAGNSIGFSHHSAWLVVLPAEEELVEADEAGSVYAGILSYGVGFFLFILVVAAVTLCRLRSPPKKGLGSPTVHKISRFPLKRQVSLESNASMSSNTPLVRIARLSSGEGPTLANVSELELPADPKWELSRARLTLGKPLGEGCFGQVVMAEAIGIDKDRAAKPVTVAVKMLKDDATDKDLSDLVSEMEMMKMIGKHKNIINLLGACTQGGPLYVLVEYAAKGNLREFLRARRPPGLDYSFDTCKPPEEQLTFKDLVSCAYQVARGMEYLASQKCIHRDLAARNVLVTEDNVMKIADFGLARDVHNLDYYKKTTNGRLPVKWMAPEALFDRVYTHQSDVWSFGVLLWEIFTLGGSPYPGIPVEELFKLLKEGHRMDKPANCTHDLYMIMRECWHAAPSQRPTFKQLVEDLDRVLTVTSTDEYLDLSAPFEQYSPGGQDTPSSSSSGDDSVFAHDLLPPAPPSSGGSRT
Sequence of Hck (P08631 whole entry, looked up): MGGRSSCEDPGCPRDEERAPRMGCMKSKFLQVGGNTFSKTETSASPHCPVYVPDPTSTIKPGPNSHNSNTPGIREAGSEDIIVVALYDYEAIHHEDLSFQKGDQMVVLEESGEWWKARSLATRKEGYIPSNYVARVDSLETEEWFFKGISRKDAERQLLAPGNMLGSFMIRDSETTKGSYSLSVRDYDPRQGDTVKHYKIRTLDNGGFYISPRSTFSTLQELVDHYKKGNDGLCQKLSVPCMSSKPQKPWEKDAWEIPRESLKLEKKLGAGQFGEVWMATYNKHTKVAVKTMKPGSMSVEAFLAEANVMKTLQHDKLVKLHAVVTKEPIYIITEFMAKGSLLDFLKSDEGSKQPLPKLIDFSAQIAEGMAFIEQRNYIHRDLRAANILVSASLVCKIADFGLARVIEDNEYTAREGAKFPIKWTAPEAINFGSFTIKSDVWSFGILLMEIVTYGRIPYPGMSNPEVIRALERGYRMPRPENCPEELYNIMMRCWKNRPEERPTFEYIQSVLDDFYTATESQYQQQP

SH2 binding enrichment [1]	SH2 binding enrichment [2]	SH2 binding enrichment [3]	Sequence	phosphorylation enrichment [4]	phosphorylation enrichment [5]	phosphorylation enrichment [6]	phosphorylation enrichment [7]	phosphorylation enrichment [8]	phosphorylation enrichment [9]	phosphorylation enrichment [10]	phosphorylation enrichment [11]	phosphorylation enrichment [12]	phosphorylation enrichment [13]	phosphorylation enrichment [14]	phosphorylation enrichment [15]	phosphorylation enrichment [16]
0.984	0.797	1.03	AVISVYDLVVV [PSEN1_Y256_A260V]	0.726	4.14	1.46	5.2	1	1.29	3.85	13.3	5.61	1.02	4.03	6.78	1.54
0.835	0.688	0.55	AVLALYNSTRD [TGFB1_Y81]	0.493	0.511	0.942	0.462	0.702	0.78	0.489	0.531	0.466	0.547	0.53	0.639	0.755
0.687	0.385	0.554	AVSEGYKDFRA [CDA_Y79]	0.519	0.452	0.689	0.441	0.602	0.553	0.338	0.341	0.386	0.542	0.456	0.449	0.602
1.23	6.91	3.31	CATIHYNYMCN [TP53_Y234_T230A]	0.6	0.487	0.896	0.464	0.511	0.717	0.389	0.573	0.591	0.563	1.99	0.435	0.78
0.808	0.387	0.607	CDTKLYTSAPN [DNTTIP2_Y427]	0.595	0.776	1.11	0.606	0.922	0.936	0.65	0.694	0.626	0.764	0.791	0.679	1
0.811	0.554	0.753	CEHRGCLYLAI [TEK_Y897_Y897C]	0.405	0.466	1.09	0.372	0.671	1.05	1.05	0.44	0.556	0.685	0.506	0.661	1.04
1.41	0.867	1.06	CEHRGHLFLAI [TEK_Y897_Y897H_YF]	0.536	0.547	1.11	0.516	0.806	0.888	0.453	0.463	0.625	0.908	0.544	0.482	1.02
0.943	0.841	0.58	CENCHYPIVPL [LCK_Y25]	0.542	0.463	0.749	0.463	0.567	0.643	0.454	0.588	0.63	0.58	0.485	0.479	0.698
0.762	0.539	0.593	CHSDDYVHISL [TSC1_Y406]	1.23	0.554	1.13	0.502	0.781	0.958	0.495	0.491	0.768	1.07	0.65	0.436	1.27
0.845	0.564	0.592	CKLVDYDSARH [BIN1_Y150_R145C]	0.395	0.414	0.909	0.463	0.61	0.66	0.372	0.401	0.505	0.624	0.447	0.381	0.777
0.731	0.391	0.523	CKLYQYYLDHL [ATRX_Y1849]	1.44	0.698	1.65	0.587	1.17	1.54	2.05	0.758	2.18	1.54	1.54	2.12	1.74
0.974	0.629	0.78	CNLDTYQKRLR [PLA2G2D_Y126_R121C]	0.532	0.475	0.624	0.463	0.592	0.563	0.473	0.395	0.463	0.462	0.582	0.434	0.65
1.15	0.907	0.812	CQAHGYFCQPI [STK11_Y156_L160P]	0.646	0.357	0.678	0.329	0.783	0.615	0.404	0.362	0.35	0.538	0.436	0.407	0.867
1.01	0.62	1.25	CRAVKYLQMVR [AVPR2_Y117_G122R]	0.436	0.417	0.878	0.459	0.733	1.2	0.401	0.455	0.499	0.527	0.467	0.331	0.882
0.943	0.722	0.949	CSEEMYCLMLQ [RET_Y981_R982C]	3.5	1.31	1.3	1.08	1.25	1.22	2.26	6.9	1.02	2.76	0.794	4.4	3.36
1.4	2.44	1.91	CSTIHYNFMCN [TP53_Y234_T230S_YF]	0.458	0.375	0.693	0.476	0.461	0.573	0.468	0.423	0.369	0.418	0.54	0.385	1.2
